The subject of one data set is eEF2K. Further details: method as in PMID 22115317. Particulars: with and without Ca^2+-calmodulin; ref [40]; cited from earlier work.
The target of a further data set is T1, A-CAT-Δ809 (Dictyostelium discoideum, UniProt P42527).
T1 construct: A-CAT encompasses the α-kinase domain and Thr825 autophosphorylation site of MHCK-A; made in house; host or cells: E. coli (printed for A-CAT and A-CAT-D663A)
T1 sequence (P42527 552-809 limits assumed): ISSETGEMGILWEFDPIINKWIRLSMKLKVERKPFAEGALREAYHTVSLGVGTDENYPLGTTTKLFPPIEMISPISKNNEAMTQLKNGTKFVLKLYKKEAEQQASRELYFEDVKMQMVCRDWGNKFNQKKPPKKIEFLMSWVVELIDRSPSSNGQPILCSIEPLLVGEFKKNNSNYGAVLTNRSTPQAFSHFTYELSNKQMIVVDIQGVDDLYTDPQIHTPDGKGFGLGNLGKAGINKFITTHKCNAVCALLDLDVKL
Briefly: Activation of truncated A-CAT-Δ809 kinase activity by phosphopeptides (Pi-pocket binding). It counts as biochemical. The conditions noted are these: 22 °C, pH 7.0, mean and standard deviation of at least 3 separate experiments; for Kd: hyperbolic fit of A-CAT-Δ809 kinase activity vs peptide, assayed as described in ref [29], 2 mM MgCl2, 1 mM dithiothreitol, 20 mM TES; for Vmax: kinase activity as a percentage of wild-type A-CAT activity, hyperbolic fit.

The test system of data set [1] is T2, Nc1ncnc2c1ncn2[C@@H]1O[C@H](COP(=O)(O)OP(=O)(O)OP(=O)(O)O)[C@@H](O)[C@H]1O.
T2 construct: A-CAT: alpha-kinase domain and Thr825 autophosphorylation site of MHCK-A; expressed in E. coli
Nature of the data set: ATPase assay by inorganic phosphate release (Pi ColorLock Gold) at 22 °C in 2 mM MgCl2, 1 mM dithiothreitol, 20 mM TES, pH 7.0. It counts as biochemical. As for the experimental part:
(§1) Assays were carried out at 22 °C in a buffer containing 2 mM MgCl2, 1 mM dithiothreitol and 20 mM TES, pH 7.0. Kinase assays contained 20 μM myelin basic protein (MBP), 0.5–2 μM A-CAT and 200 μM [γ-^32P]ATP (specific activity 100 cpm/pmol). At each time point, 20 μl aliquots of the reaction mixture were spotted onto squares of Whatman P81 phosphocellulose paper, which were then washed 1% phosphoric acid, immersed in ScintiVerse Universal LS Mixture (Fisher Scientific), and counted using a Beckman LS 9000 scintillation counter. Assays to measure A-CAT-Δ809 activity in the presence of the QQG(p)TMVMPD and QQG(p)TMSMPD peptides were carried out as described. ATPase activity was assayed using 250 μM ATP and release of inorganic phosphate (Pi) was measured using the Pi ColorLock Gold phosphate detection system (Innova Biosciences). Data from the initial linear portion of the time courses were used to calculate kinase and ATPase activity. Nucleotide binding assays using mant-ATP and mant-ADP were carried out as previously described. Results represent the mean and standard deviation of at least 3 separate experiments.

Data set [2] has the same test system. Briefly: Radiometric kinase assay with [γ-32P]ATP and 20 μM myelin basic protein as phosphate acceptor (P81 paper) at 22 °C in 2 mM MgCl2, 1 mM dithiothreitol, 20 mM TES, pH 7.0. The class given is biochemical. As for the experimental part: as §1
In data set [3] the test system is T3, Nc1ncnc2c1ncn2[C@@H]1O[C@H](COP(=O)(O)OP(=O)(O)OP(=O)(O)O)[C@@H](O)[C@H]1O.
T3 construct: A-CAT: alpha-kinase domain and Thr825 autophosphorylation site of MHCK-A
Nature of the data set: ATPase assay by inorganic phosphate release (Pi ColorLock Gold) at 22 °C in 2 mM MgCl2, 1 mM dithiothreitol, 20 mM TES, pH 7.0. The class given is biochemical. The procedure:
as §1

The test system is the same in data set [4]. Briefly: Radiometric kinase assay with [γ-32P]ATP and 20 μM myelin basic protein as phosphate acceptor (P81 paper) at 22 °C in 2 mM MgCl2, 1 mM dithiothreitol, 20 mM TES, pH 7.0. The class given is biochemical. As for the experimental part: as §1
Substrate in data set [5]: Nc1ncnc2c1ncn2[C@@H]1O[C@H](COP(=O)(O)OP(=O)(O)OP(=O)(O)O)[C@@H](O)[C@H]1O
Briefly: ATPase assay by inorganic phosphate release (Pi ColorLock Gold) at 22 °C in 2 mM MgCl2, 1 mM dithiothreitol, 20 mM TES, pH 7.0. The class given is biochemical. The procedure:
as §1

Substrate in data set [6]: Nc1ncnc2c1ncn2[C@@H]1O[C@H](COP(=O)(O)OP(=O)(O)OP(=O)(O)O)[C@@H](O)[C@H]1O
Briefly: Radiometric kinase assay with [γ-32P]ATP and 20 μM myelin basic protein as phosphate acceptor (P81 paper) at 22 °C in 2 mM MgCl2, 1 mM dithiothreitol, 20 mM TES, pH 7.0. It counts as biochemical. The procedure: as §1

Data set [7] concerns the target A-CAT-Δ809, truncated A-CAT that lacks the activating Thr825 site of autophosphorylation (Dictyostelium).

Non-standard residues stand in square brackets, D forms with d. Residues, ends and D or L forms follow the SMILES beside them. No end group written: not given here. pT = C[C@@H](OP(=O)(O)O)[C@H](N)C(=O)O

Take `Nc1ncnc2c1ncn2[C@@H]1O[C@H](COP(=O)(O)OP(=O)(O)OP(=O)(O)O)[C@@H](O)[C@H]1O` [ATP]: in the data set on eEF2K, the “ATP binding to eEF2K” value is “binds ATP in the presence and absence of Ca^2+-calmodulin”; the “UV cross-linking of ATP to eEF2K” value is recorded as “can be UV cross-linked to ATP only in the presence of Ca^2+-calmodulin”.

In the case of `CSCC[C@H](NC(=O)[C@@H](NC(=O)CNC(=O)[C@H](CCC(N)=O)NC(=O)[C@@H](N)CCC(N)=O)[C@@H](C)OP(=O)(O)O)C(=O)N[C@@H](CO)C(=O)N[C@@H](CCSC)C(=O)N1CCC[C@H]1C(=O)N[C@@H](CC(=O)O)C(=O)O` [QQG(p)TMSMPD] (H-QQG[pT]MSMPD-OH), on A-CAT-Δ809, the Kd is 98 ± 12 µM and the Vmax is 51 ± 3%.

Consider `CSCC[C@H](NC(=O)[C@@H](NC(=O)CNC(=O)[C@H](CCC(N)=O)NC(=O)[C@@H](N)CCC(N)=O)[C@@H](C)OP(=O)(O)O)C(=O)N[C@H](C(=O)N[C@@H](CCSC)C(=O)N1CCC[C@H]1C(=O)N[C@@H](CC(=O)O)C(=O)O)C(C)C` [QQG(p)TMVMPD] (H-QQG[pT]MVMPD-OH), for which, at A-CAT-Δ809, the Kd worked out at 38 ± 12 µM and the Vmax is 61 ± 4%.

For the molecule D663A (Dictyostelium discoideum; D663A), in [1], the Km came to 21 ± 5 µM and the turnover number (kcat) is 0.0167 ± 0.00333 s⁻¹. For the same molecule, in data set [2], the Km was determined as 54 ± 25 µM and the catalytic constant (kcat) amounted to 0.00105 ± 0.000117 s⁻¹.

Consider D663S (Dictyostelium discoideum; D663S), for which the Michaelis-Menten constant (Km) in [3] was determined as 31 ± 7 µM; in [4], 29 ± 16 µM. Besides, the kcat was 0.00733 ± 0.00267 s⁻¹ in [3] and 0.00103 ± 0.000117 s⁻¹ in data set [4].

Y647A (Dictyostelium discoideum; Y647A): the kcat came to 0.00483 ± 0.00117 s⁻¹ in data set [3] and 0.00367 ± 0.000333 s⁻¹ in [4]. Moreover, the Km in data set [4] worked out at 162 ± 38 µM.

Turning to Y647F (Dictyostelium discoideum; Y647F), in [3], the Michaelis-Menten constant (Km) is 64 ± 2 µM and the catalytic constant (kcat) turned out to be 0.00633 ± 0.00117 s⁻¹. Also, in data set [4], the Km came to 65 ± 35 µM and the kcat was 0.00045 ± 0.000117 s⁻¹.

B1: A-CAT WT (Dictyostelium discoideum) (protein)
chain: ISSETGEMGILWEFDPIINKWIRLSMKLKVERKPFAEGALREAYHTVSLGVGTDENYPLGTTTKLFPPIEMISPISKNNEAMTQLKNGTKFVLKLYKKEAEQQASRELYFEDVKMQMVCRDWGNKFNQKKPPKKIEFLMSWVVELIDRSPSSNGQPILCSIEPLLVGEFKKNNSNYGAVLTNRSTPQAFSHFTYELSNKQMIVVDIQGVDDLYTDPQIHTPDGKGFGLGNLGKAGINKFITTHKCNAVCALLDLDVKLGGVLSGNNKKQLQQGTMVMPDILPELMPSDNT
notes: A-CAT: alpha-kinase domain and Thr825 autophosphorylation site of MHCK-A; expressed in E. coli
As for B1, in data set [5], the Michaelis-Menten constant (Km) is 35 ± 4 µM and the kcat came to 0.0317 ± 0.00167 s⁻¹. In addition, in data set [6], the Km worked out at 23 ± 5 µM and the turnover number (kcat) worked out at 0.0967 ± 0.00667 s⁻¹.

B2: QQG(p)TMVMPD phosphopeptide (peptide)
peptide: QQG[pT]MVMPD
For B2, the kinase activity of A-CAT-Δ809 assayed in the presence of the peptide; Kd from a hyperbolic curve fit in data set [7] amounted to 38 µM.

B3: QQG(p)TMSMPD phosphopeptide (peptide)
peptide: QQG[pT]MSMPD
For B3, the kinase activity of A-CAT-Δ809 assayed in the presence of the peptide; Kd from a hyperbolic curve fit in [7] came out at 98 µM.

By Kd is commonly meant a measure of binding affinity in units of concentration. What is called Km is the substrate concentration at which the rate is half of its maximum. For orientation: kcat means the number of substrate molecules converted per active site and unit of time at saturation.

The values are drawn from paper PMC4876393, “Structure of the Dictyostelium Myosin-II Heavy Chain Kinase A (MHCK-A) α-kinase domain apoenzyme reveals a novel autoinhibited conformation” (Scientific Reports, 2016).
